# ± gives the uncertainty stated by the source.
# B1: Friend leukemia integration 1 transcription factor, residues 116 to 197; numbered along this chain, Q01543 (parent)
# chain: NMTTNERRVIVPADPTLWTQEHVRQWLEWAIKEYSLMEIDTSFFQNMDGKELCKMNKEDFLRATTLYNTEVLLSHLSYLRES
# Variants of: B1
# Assay: abundance fitness (aPCA) (normalised: wild type 0, dead -1); higher = more abundant; growth selection in yeast, the domain comes from the species named
# Conditions: Homo sapiens
row,Variant,abundance fitness
1,NMTTNERRVIVPADPTLWTQEHVRQWLEWHIKEYSLMEIDTSFFQNMDGKELCKMNKEDFLRATTLYNTEVLLSHLSYLRES [A30H],-0.162 ± 0.13
2,NMTTNERRVIVPADPTLWTQEHVRQWLEWIIKEYSLMEIDTSFFQNMDGKELCKMNKEDFLRATTLYNTEVLLSHLSYLRES [A30I],-0.061 ± 0.12
3,NMTTNERRVIVPADPTLWTQEHVRQWLEWGIKEYSLMEIDTSFFQNMDGKELCKMNKEDFLRATTLYNTEVLLSHLSYLRES [A30G],-0.253 ± 0.086
4,NMTTNERRVIVPADPTLWTQEHVRQWLEWKIKEYSLMEIDTSFFQNMDGKELCKMNKEDFLRATTLYNTEVLLSHLSYLRES [A30K],-0.161 ± 0.11
5,NMTTNERRVIVPADPTLWTQEHVRQWLEWLIKEYSLMEIDTSFFQNMDGKELCKMNKEDFLRATTLYNTEVLLSHLSYLRES [A30L],-0.186 ± 0.045
6,NMTTNERRVIVPADPTLWTQEHVRQWLEWVIKEYSLMEIDTSFFQNMDGKELCKMNKEDFLRATTLYNTEVLLSHLSYLRES [A30V],-0.092 ± 0.059
7,NMTTNERRVIVPADPTLWTQEHVRQWLEWEIKEYSLMEIDTSFFQNMDGKELCKMNKEDFLRATTLYNTEVLLSHLSYLRES [A30E],-0.071 ± 0.11
8,NMTTNERRVIVPADPTLWTQEHVRQWLEWDIKEYSLMEIDTSFFQNMDGKELCKMNKEDFLRATTLYNTEVLLSHLSYLRES [A30D],-0.709 ± 0.18
9,NMTTNERRVIVPADPTLWTQEHVRQWLEWPIKEYSLMEIDTSFFQNMDGKELCKMNKEDFLRATTLYNTEVLLSHLSYLRES [A30P],-1.07 ± 0.26
10,NMTTNERRVIVPADPTLWTQEHVRQWLEWNIKEYSLMEIDTSFFQNMDGKELCKMNKEDFLRATTLYNTEVLLSHLSYLRES [A30N],-0.136 ± 0.3
11,NMTTNERRVIVPADPTLWTQEHVRQWLEWFIKEYSLMEIDTSFFQNMDGKELCKMNKEDFLRATTLYNTEVLLSHLSYLRES [A30F],-0.287 ± 0.13
12,NMTTNERRVIVPADPTLWTQEHVRQWLEWWIKEYSLMEIDTSFFQNMDGKELCKMNKEDFLRATTLYNTEVLLSHLSYLRES [A30W],-0.554 ± 0.078
13,NMTTNERRVIVPADPTLWTQEHVRQWLEWMIKEYSLMEIDTSFFQNMDGKELCKMNKEDFLRATTLYNTEVLLSHLSYLRES [A30M],-0.057 ± 0.07
14,NMTTNERRVIVPADPTLWTQEHVRQWLEWRIKEYSLMEIDTSFFQNMDGKELCKMNKEDFLRATTLYNTEVLLSHLSYLRES [A30R],-0.21 ± 0.053
15,NMTTNERRVIVPADPTLWTQEHVRQWLEWTIKEYSLMEIDTSFFQNMDGKELCKMNKEDFLRATTLYNTEVLLSHLSYLRES [A30T],-0.058 ± 0.063
16,NMTTNERRVIVPADPTLWTQEHVRQWLEWQIKEYSLMEIDTSFFQNMDGKELCKMNKEDFLRATTLYNTEVLLSHLSYLRES [A30Q],0.18 ± 0.12
17,NMTTNERRVIVPADPTLWTQEHVRQWLEWCIKEYSLMEIDTSFFQNMDGKELCKMNKEDFLRATTLYNTEVLLSHLSYLRES [A30C],-0.058 ± 0.14

row,Variant,abundance fitness
1,NMTTNERRVIVPADPTLWTQEHVRQWLEWSIKEYSLMEIDTSFFQNMDGKELCKMNKEDFLRATTLYNTEVLLSHLSYLRES [A30S],0.031 ± 0.065
2,NMTTNERRVIVPADPTLWTQEHVRQWLEWAHKEYSLMEIDTSFFQNMDGKELCKMNKEDFLRATTLYNTEVLLSHLSYLRES [I31H],-0.034 ± 0.36
3,NMTTNERRVIVPADPTLWTQEHVRQWLEWAFKEYSLMEIDTSFFQNMDGKELCKMNKEDFLRATTLYNTEVLLSHLSYLRES [I31F],-0.549 ± 0.22
4,NMTTNERRVIVPADPTLWTQEHVRQWLEWALKEYSLMEIDTSFFQNMDGKELCKMNKEDFLRATTLYNTEVLLSHLSYLRES [I31L],-0.305 ± 0.071
5,NMTTNERRVIVPADPTLWTQEHVRQWLEWASKEYSLMEIDTSFFQNMDGKELCKMNKEDFLRATTLYNTEVLLSHLSYLRES [I31S],0.041 ± 0.069
6,NMTTNERRVIVPADPTLWTQEHVRQWLEWAPKEYSLMEIDTSFFQNMDGKELCKMNKEDFLRATTLYNTEVLLSHLSYLRES [I31P],-1.22 ± 0.47
7,NMTTNERRVIVPADPTLWTQEHVRQWLEWAVKEYSLMEIDTSFFQNMDGKELCKMNKEDFLRATTLYNTEVLLSHLSYLRES [I31V],-0.001 ± 0.058
8,NMTTNERRVIVPADPTLWTQEHVRQWLEWATKEYSLMEIDTSFFQNMDGKELCKMNKEDFLRATTLYNTEVLLSHLSYLRES [I31T],-0.023 ± 0.11
9,NMTTNERRVIVPADPTLWTQEHVRQWLEWARKEYSLMEIDTSFFQNMDGKELCKMNKEDFLRATTLYNTEVLLSHLSYLRES [I31R],0.063 ± 0.071
10,NMTTNERRVIVPADPTLWTQEHVRQWLEWAGKEYSLMEIDTSFFQNMDGKELCKMNKEDFLRATTLYNTEVLLSHLSYLRES [I31G],-0.384 ± 0.073
11,NMTTNERRVIVPADPTLWTQEHVRQWLEWAMKEYSLMEIDTSFFQNMDGKELCKMNKEDFLRATTLYNTEVLLSHLSYLRES [I31M],0.08 ± 0.095
12,NMTTNERRVIVPADPTLWTQEHVRQWLEWAKKEYSLMEIDTSFFQNMDGKELCKMNKEDFLRATTLYNTEVLLSHLSYLRES [I31K],-0.059 ± 0.1
13,NMTTNERRVIVPADPTLWTQEHVRQWLEWAQKEYSLMEIDTSFFQNMDGKELCKMNKEDFLRATTLYNTEVLLSHLSYLRES [I31Q],-0.075 ± 0.1
14,NMTTNERRVIVPADPTLWTQEHVRQWLETAIKEYSLMEIDTSFFQNMDGKELCKMNKEDFLRATTLYNTEVLLSHLSYLRES [W29T],0.13 ± 0.082
15,NMTTNERRVIVPADPTLWTQEHVRQWLESAIKEYSLMEIDTSFFQNMDGKELCKMNKEDFLRATTLYNTEVLLSHLSYLRES [W29S],0.112 ± 0.084
16,NMTTNERRVIVPADPTLWTQEHVRQWLEYAIKEYSLMEIDTSFFQNMDGKELCKMNKEDFLRATTLYNTEVLLSHLSYLRES [W29Y],-0.058 ± 0.12
17,NMTTNERRVIVPADPTLWTQEHVRQWLEVAIKEYSLMEIDTSFFQNMDGKELCKMNKEDFLRATTLYNTEVLLSHLSYLRES [W29V],-0.14 ± 0.071

# Source: the Human Domainome abundance scans (Beltran et al. 2025)
